From patent US20180071366A1 come the findings set out here.

Numbered stars: 1 amine (or outer) side, 2 acyl side, 3 side chain; on linkers, the order of the positions; unused ones are H or OH. Bridge positions count the residues as written; N and C are the ends. Square brackets hold non-standard residues; d marks the D form. * marks the point of attachment. C20 diacid = O=C(O)CCCCCCCCCCCCCCCCCCC(=O)*; γGlu = O=C(O)[C@H](CCC(=O)[*:2])N[*:1]; Hyp = O=C(O)[C@@H]1C[C@@H](O)CN1; NMeI = CC[C@H](C)[C@H](NC)C(=O)O; Dab = NCC[C@H](N)C(=O)O; Sar = CNCC(=O)O

Assay [1] deals with recombinant human amylin 3 receptor (hAMYR3) (human), P30988. As to the kind of experiment: cell-based or functional assay.
recombinant human amylin 3 receptor (hAMYR3) (human), P30988, sequence (P30988 25-474, chain 1 of 2): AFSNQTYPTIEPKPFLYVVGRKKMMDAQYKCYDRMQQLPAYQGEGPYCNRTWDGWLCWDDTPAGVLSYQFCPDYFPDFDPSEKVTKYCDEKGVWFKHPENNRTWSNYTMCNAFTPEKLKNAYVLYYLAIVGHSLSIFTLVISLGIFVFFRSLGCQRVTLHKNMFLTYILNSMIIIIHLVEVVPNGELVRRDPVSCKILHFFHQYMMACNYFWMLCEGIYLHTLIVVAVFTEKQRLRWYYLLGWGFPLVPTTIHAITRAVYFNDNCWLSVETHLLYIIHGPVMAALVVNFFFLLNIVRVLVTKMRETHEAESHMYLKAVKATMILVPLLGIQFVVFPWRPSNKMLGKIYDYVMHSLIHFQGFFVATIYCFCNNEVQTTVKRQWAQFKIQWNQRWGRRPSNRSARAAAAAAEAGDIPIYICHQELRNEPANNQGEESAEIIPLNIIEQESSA
recombinant human amylin 3 receptor (hAMYR3) (human), P30988, sequence (O60896 24-148, chain 2 of 2, further chain): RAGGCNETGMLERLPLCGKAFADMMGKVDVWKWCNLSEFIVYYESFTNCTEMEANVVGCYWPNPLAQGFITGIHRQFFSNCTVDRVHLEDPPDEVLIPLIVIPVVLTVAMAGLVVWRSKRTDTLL
Assay [2] deals with recombinant human calcitonin receptor (hCT-R) (human), P30988. As to the kind of experiment: cell-based or functional assay.
recombinant human calcitonin receptor (hCT-R) (human), P30988, sequence (P30988 25-474): as the sequence (P30988 25-474, chain 1 of 2) above

B1: Compound 15 (peptide)
peptide: {C20 diacid-γGlu}-RDGTATKATQRLAHFLQRSSF[Sar]A[NMeI]PSSTEVGSNT[Hyp]-NH2
modifications: lactam 2-7
SMILES: CC[C@H](C)[C@@H](C(=O)N1CCC[C@H]1C(=O)N[C@@H](CO)C(=O)N[C@@H](CO)C(=O)N[C@H](C(=O)N[C@@H](CCC(=O)O)C(=O)N[C@H](C(=O)NCC(=O)N[C@@H](CO)C(=O)N[C@@H](CC(N)=O)C(=O)N[C@H](C(=O)N1C[C@H](O)C[C@H]1C(N)=O)[C@@H](C)O)C(C)C)[C@@H](C)O)N(C)C(=O)[C@H](C)NC(=O)CN(C)C(=O)[C@H](Cc1ccccc1)NC(=O)[C@H](CO)NC(=O)[C@H](CO)NC(=O)[C@H](CCCNC(=N)N)NC(=O)[C@H](CCC(N)=O)NC(=O)[C@H](CC(C)C)NC(=O)[C@H](Cc1ccccc1)NC(=O)[C@H](Cc1c[nH]cn1)NC(=O)[C@H](C)NC(=O)[C@H](CC(C)C)NC(=O)[C@H](CCCNC(=N)N)NC(=O)[C@H](CCC(N)=O)NC(=O)[C@@H](NC(=O)[C@H](C)NC(=O)[C@@H]1CCCCNC(=O)C[C@H](NC(=O)[C@H](CCCNC(=N)N)NC(=O)CC[C@H](NC(=O)CCCCCCCCCCCCCCCCCCC(=O)O)C(=O)O)C(=O)NCC(=O)N[C@@H]([C@@H](C)O)C(=O)N[C@@H](C)C(=O)N[C@@H]([C@@H](C)O)C(=O)N1)[C@@H](C)O
With B1, the hAMYR3 EC50 [nM] (cAMP formation, 1321N1 cells expressing hAMYR3) in assay [1] came to 0.017 nM. In addition, the hCT-R EC50 [nM] (cAMP formation, 1321N1 cells expressing hCT-R) in assay [2] was found to be 0.056 nM.

B2: Compound 14 (peptide)
peptide: {C20 diacid-γGlu}-RDGTASKATERLAHFLQRSSF[Sar]A[NMeI]LSSTEVGSNT[Hyp]-NH2
modifications: lactam 2-7
SMILES: CC[C@H](C)[C@@H](C(=O)N[C@@H](CC(C)C)C(=O)N[C@@H](CO)C(=O)N[C@@H](CO)C(=O)N[C@H](C(=O)N[C@@H](CCC(=O)O)C(=O)N[C@H](C(=O)NCC(=O)N[C@@H](CO)C(=O)N[C@@H](CC(N)=O)C(=O)N[C@H](C(=O)N1C[C@H](O)C[C@H]1C(N)=O)[C@@H](C)O)C(C)C)[C@@H](C)O)N(C)C(=O)[C@H](C)NC(=O)CN(C)C(=O)[C@H](Cc1ccccc1)NC(=O)[C@H](CO)NC(=O)[C@H](CO)NC(=O)[C@H](CCCNC(=N)N)NC(=O)[C@H](CCC(N)=O)NC(=O)[C@H](CC(C)C)NC(=O)[C@H](Cc1ccccc1)NC(=O)[C@H](Cc1c[nH]cn1)NC(=O)[C@H](C)NC(=O)[C@H](CC(C)C)NC(=O)[C@H](CCCNC(=N)N)NC(=O)[C@H](CCC(=O)O)NC(=O)[C@@H](NC(=O)[C@H](C)NC(=O)[C@@H]1CCCCNC(=O)C[C@H](NC(=O)[C@H](CCCNC(=N)N)NC(=O)CC[C@H](NC(=O)CCCCCCCCCCCCCCCCCCC(=O)O)C(=O)O)C(=O)NCC(=O)N[C@@H]([C@@H](C)O)C(=O)N[C@@H](C)C(=O)N[C@@H](CO)C(=O)N1)[C@@H](C)O
In the case of B2, the hAMYR3 EC50 [nM] (cAMP formation, 1321N1 cells expressing hAMYR3) in assay [1] worked out at 0.108 nM. Also, in assay [2], the hCT-R EC50 [nM] (cAMP formation, 1321N1 cells expressing hCT-R) is 0.386 nM.

B3: Compound 17 (peptide)
peptide: {C20 diacid-γGlu}-RDGTATKATERLAHFLQRSSF[Sar]A[NMeI]PSSTEVGSNT[Hyp]-NH2
modifications: lactam 2-7
SMILES: CC[C@H](C)[C@@H](C(=O)N1CCC[C@H]1C(=O)N[C@@H](CO)C(=O)N[C@@H](CO)C(=O)N[C@H](C(=O)N[C@@H](CCC(=O)O)C(=O)N[C@H](C(=O)NCC(=O)N[C@@H](CO)C(=O)N[C@@H](CC(N)=O)C(=O)N[C@H](C(=O)N1C[C@H](O)C[C@H]1C(N)=O)[C@@H](C)O)C(C)C)[C@@H](C)O)N(C)C(=O)[C@H](C)NC(=O)CN(C)C(=O)[C@H](Cc1ccccc1)NC(=O)[C@H](CO)NC(=O)[C@H](CO)NC(=O)[C@H](CCCNC(=N)N)NC(=O)[C@H](CCC(N)=O)NC(=O)[C@H](CC(C)C)NC(=O)[C@H](Cc1ccccc1)NC(=O)[C@H](Cc1c[nH]cn1)NC(=O)[C@H](C)NC(=O)[C@H](CC(C)C)NC(=O)[C@H](CCCNC(=N)N)NC(=O)[C@H](CCC(=O)O)NC(=O)[C@@H](NC(=O)[C@H](C)NC(=O)[C@@H]1CCCCNC(=O)C[C@H](NC(=O)[C@H](CCCNC(=N)N)NC(=O)CC[C@H](NC(=O)CCCCCCCCCCCCCCCCCCC(=O)O)C(=O)O)C(=O)NCC(=O)N[C@@H]([C@@H](C)O)C(=O)N[C@@H](C)C(=O)N[C@@H]([C@@H](C)O)C(=O)N1)[C@@H](C)O
As for B3, in assay [1], the hAMYR3 EC50 [nM] (cAMP formation, 1321N1 cells expressing hAMYR3) was 0.025 nM. In addition, the hCT-R EC50 [nM] (cAMP formation, 1321N1 cells expressing hCT-R) in assay [2] was determined as 0.058 nM.

B4: Compound 2 (peptide)
peptide: {C20 diacid-γGlu}-RDGTAT[Dab]ATERLAHFLQRSSF[Sar]A[NMeI]LSSTEVGSNT[Hyp]-NH2
modifications: lactam 2-7
SMILES: CC[C@H](C)[C@@H](C(=O)N[C@@H](CC(C)C)C(=O)N[C@@H](CO)C(=O)N[C@@H](CO)C(=O)N[C@H](C(=O)N[C@@H](CCC(=O)O)C(=O)N[C@H](C(=O)NCC(=O)N[C@@H](CO)C(=O)N[C@@H](CC(N)=O)C(=O)N[C@H](C(=O)N1C[C@H](O)C[C@H]1C(N)=O)[C@@H](C)O)C(C)C)[C@@H](C)O)N(C)C(=O)[C@H](C)NC(=O)CN(C)C(=O)[C@H](Cc1ccccc1)NC(=O)[C@H](CO)NC(=O)[C@H](CO)NC(=O)[C@H](CCCNC(=N)N)NC(=O)[C@H](CCC(N)=O)NC(=O)[C@H](CC(C)C)NC(=O)[C@H](Cc1ccccc1)NC(=O)[C@H](Cc1c[nH]cn1)NC(=O)[C@H](C)NC(=O)[C@H](CC(C)C)NC(=O)[C@H](CCCNC(=N)N)NC(=O)[C@H](CCC(=O)O)NC(=O)[C@@H](NC(=O)[C@H](C)NC(=O)[C@@H]1CCNC(=O)C[C@H](NC(=O)[C@H](CCCNC(=N)N)NC(=O)CC[C@H](NC(=O)CCCCCCCCCCCCCCCCCCC(=O)O)C(=O)O)C(=O)NCC(=O)N[C@@H]([C@@H](C)O)C(=O)N[C@@H](C)C(=O)N[C@@H]([C@@H](C)O)C(=O)N1)[C@@H](C)O
With B4, in assay [1], the hAMYR3 EC50 [nM] (cAMP formation, 1321N1 cells expressing hAMYR3) came out at 0.032 nM. Further, the hCT-R EC50 [nM] (cAMP formation, 1321N1 cells expressing hCT-R) in assay [2] was 0.105 nM.

B5: Compound 16 (peptide)
peptide: {C20 diacid-γGlu}-RDGTATKATQRLAHFLQRSSF[Sar]A[NMeI]LSSTEVGSNT[Hyp]-NH2
modifications: lactam 2-7
SMILES: CC[C@H](C)[C@@H](C(=O)N[C@@H](CC(C)C)C(=O)N[C@@H](CO)C(=O)N[C@@H](CO)C(=O)N[C@H](C(=O)N[C@@H](CCC(=O)O)C(=O)N[C@H](C(=O)NCC(=O)N[C@@H](CO)C(=O)N[C@@H](CC(N)=O)C(=O)N[C@H](C(=O)N1C[C@H](O)C[C@H]1C(N)=O)[C@@H](C)O)C(C)C)[C@@H](C)O)N(C)C(=O)[C@H](C)NC(=O)CN(C)C(=O)[C@H](Cc1ccccc1)NC(=O)[C@H](CO)NC(=O)[C@H](CO)NC(=O)[C@H](CCCNC(=N)N)NC(=O)[C@H](CCC(N)=O)NC(=O)[C@H](CC(C)C)NC(=O)[C@H](Cc1ccccc1)NC(=O)[C@H](Cc1c[nH]cn1)NC(=O)[C@H](C)NC(=O)[C@H](CC(C)C)NC(=O)[C@H](CCCNC(=N)N)NC(=O)[C@H](CCC(N)=O)NC(=O)[C@@H](NC(=O)[C@H](C)NC(=O)[C@@H]1CCCCNC(=O)C[C@H](NC(=O)[C@H](CCCNC(=N)N)NC(=O)CC[C@H](NC(=O)CCCCCCCCCCCCCCCCCCC(=O)O)C(=O)O)C(=O)NCC(=O)N[C@@H]([C@@H](C)O)C(=O)N[C@@H](C)C(=O)N[C@@H]([C@@H](C)O)C(=O)N1)[C@@H](C)O
As for B5, the hAMYR3 EC50 [nM] (cAMP formation, 1321N1 cells expressing hAMYR3) in assay [1] was determined as 0.035 nM. Moreover, the hCT-R EC50 [nM] (cAMP formation, 1321N1 cells expressing hCT-R) in assay [2] was 0.043 nM.

B6: Compound 12 (peptide)
peptide: {C20 diacid-γGlu}-RDGEATKATERLAHFLQRSSF[Sar]A[NMeI]LSSTEVGSNT[Hyp]-NH2
modifications: lactam 2-7
SMILES: CC[C@H](C)[C@@H](C(=O)N[C@@H](CC(C)C)C(=O)N[C@@H](CO)C(=O)N[C@@H](CO)C(=O)N[C@H](C(=O)N[C@@H](CCC(=O)O)C(=O)N[C@H](C(=O)NCC(=O)N[C@@H](CO)C(=O)N[C@@H](CC(N)=O)C(=O)N[C@H](C(=O)N1C[C@H](O)C[C@H]1C(N)=O)[C@@H](C)O)C(C)C)[C@@H](C)O)N(C)C(=O)[C@H](C)NC(=O)CN(C)C(=O)[C@H](Cc1ccccc1)NC(=O)[C@H](CO)NC(=O)[C@H](CO)NC(=O)[C@H](CCCNC(=N)N)NC(=O)[C@H](CCC(N)=O)NC(=O)[C@H](CC(C)C)NC(=O)[C@H](Cc1ccccc1)NC(=O)[C@H](Cc1c[nH]cn1)NC(=O)[C@H](C)NC(=O)[C@H](CC(C)C)NC(=O)[C@H](CCCNC(=N)N)NC(=O)[C@H](CCC(=O)O)NC(=O)[C@@H](NC(=O)[C@H](C)NC(=O)[C@@H]1CCCCNC(=O)C[C@H](NC(=O)[C@H](CCCNC(=N)N)NC(=O)CC[C@H](NC(=O)CCCCCCCCCCCCCCCCCCC(=O)O)C(=O)O)C(=O)NCC(=O)N[C@@H](CCC(=O)O)C(=O)N[C@@H](C)C(=O)N[C@@H]([C@@H](C)O)C(=O)N1)[C@@H](C)O
For the molecule B6, the hAMYR3 EC50 [nM] (cAMP formation, 1321N1 cells expressing hAMYR3) in assay [1] stood at 0.999 nM. Further, in assay [2], the hCT-R EC50 [nM] (cAMP formation, 1321N1 cells expressing hCT-R) is 0.893 nM.

B7: Compound 13 (peptide)
peptide: {C20 diacid-γGlu}-RDGTLTKATERLAHFLQRSSF[Sar]A[NMeI]LSSTEVGSNT[Hyp]-NH2
modifications: lactam 2-7
SMILES: CC[C@H](C)[C@@H](C(=O)N[C@@H](CC(C)C)C(=O)N[C@@H](CO)C(=O)N[C@@H](CO)C(=O)N[C@H](C(=O)N[C@@H](CCC(=O)O)C(=O)N[C@H](C(=O)NCC(=O)N[C@@H](CO)C(=O)N[C@@H](CC(N)=O)C(=O)N[C@H](C(=O)N1C[C@H](O)C[C@H]1C(N)=O)[C@@H](C)O)C(C)C)[C@@H](C)O)N(C)C(=O)[C@H](C)NC(=O)CN(C)C(=O)[C@H](Cc1ccccc1)NC(=O)[C@H](CO)NC(=O)[C@H](CO)NC(=O)[C@H](CCCNC(=N)N)NC(=O)[C@H](CCC(N)=O)NC(=O)[C@H](CC(C)C)NC(=O)[C@H](Cc1ccccc1)NC(=O)[C@H](Cc1c[nH]cn1)NC(=O)[C@H](C)NC(=O)[C@H](CC(C)C)NC(=O)[C@H](CCCNC(=N)N)NC(=O)[C@H](CCC(=O)O)NC(=O)[C@@H](NC(=O)[C@H](C)NC(=O)[C@@H]1CCCCNC(=O)C[C@H](NC(=O)[C@H](CCCNC(=N)N)NC(=O)CC[C@H](NC(=O)CCCCCCCCCCCCCCCCCCC(=O)O)C(=O)O)C(=O)NCC(=O)N[C@@H]([C@@H](C)O)C(=O)N[C@@H](CC(C)C)C(=O)N[C@@H]([C@@H](C)O)C(=O)N1)[C@@H](C)O
Consider B7, for which the hAMYR3 EC50 [nM] (cAMP formation, 1321N1 cells expressing hAMYR3) in assay [1] is 0.456 nM. In addition, in assay [2], the hCT-R EC50 [nM] (cAMP formation, 1321N1 cells expressing hCT-R) came out at 1.41 nM.
